Measurements from US20220273751A1 (GPCR THERAPEUTICS, published 2022).

Biological target: ADRB2 (Adrenoceptor Beta 2) (human, UniProt P07550 1-413)
Assay: cell-based or functional assay

B1: CXCR4 (C-X-C Motif Chemokine Receptor 4) (receptor, human, UniProt P61073 1-352, looked up)
chain: MEGISIYTSDNYTEEMGSGDYDSMKEPCFREENANFNKIFLPTIYSIIFLTGIVGNGLVILVMGYQKKLRSMTDKYRLHLSVADLLFVITLPFWAVDAVANWYFGNFLCKAVHVIYTVNLYSSVLILAFISLDRYLAIVHATNSQRPRKLLAEKVVYVGVWIPALLLTIPDFIFANVSEADDRYICDRFYPNDLWVVVFQFQHIMVGLILPGIVILSCYCIIISKLSHSKGHQKRKALKTTVILILAFFACWLPYYIGISIDSFILLEIIKQGCEFENTVHKWISITEALAFFHCCLNPILYAFLGAKFKTSAQHALTSVSRGSSLKILSKGKRGGHSSVSTESESSSFHSS
calcium response on co-stimulation with CXCL12 (200 nM) and formoterol (10 uM) relative to CXCL12 alone, HL-60 cells: ~8 fold | calcium response on co-stimulation with CXCL12 (200 nM) and formoterol (10 uM) relative to CXCL12 alone, U937 cells: ~4 fold
